Reference: patent US11541101 (UNIVERSITY OF VIRGINIA PATENT FOUNDATION, dated 2023)

Target: T1, LEM domain containing protein 3 (LEMD3), endogenous (human, UniProt Q9Y2U8 2-911)
T1 construct: also called endogenous LEMD3; native LEMD3
T1 sequence: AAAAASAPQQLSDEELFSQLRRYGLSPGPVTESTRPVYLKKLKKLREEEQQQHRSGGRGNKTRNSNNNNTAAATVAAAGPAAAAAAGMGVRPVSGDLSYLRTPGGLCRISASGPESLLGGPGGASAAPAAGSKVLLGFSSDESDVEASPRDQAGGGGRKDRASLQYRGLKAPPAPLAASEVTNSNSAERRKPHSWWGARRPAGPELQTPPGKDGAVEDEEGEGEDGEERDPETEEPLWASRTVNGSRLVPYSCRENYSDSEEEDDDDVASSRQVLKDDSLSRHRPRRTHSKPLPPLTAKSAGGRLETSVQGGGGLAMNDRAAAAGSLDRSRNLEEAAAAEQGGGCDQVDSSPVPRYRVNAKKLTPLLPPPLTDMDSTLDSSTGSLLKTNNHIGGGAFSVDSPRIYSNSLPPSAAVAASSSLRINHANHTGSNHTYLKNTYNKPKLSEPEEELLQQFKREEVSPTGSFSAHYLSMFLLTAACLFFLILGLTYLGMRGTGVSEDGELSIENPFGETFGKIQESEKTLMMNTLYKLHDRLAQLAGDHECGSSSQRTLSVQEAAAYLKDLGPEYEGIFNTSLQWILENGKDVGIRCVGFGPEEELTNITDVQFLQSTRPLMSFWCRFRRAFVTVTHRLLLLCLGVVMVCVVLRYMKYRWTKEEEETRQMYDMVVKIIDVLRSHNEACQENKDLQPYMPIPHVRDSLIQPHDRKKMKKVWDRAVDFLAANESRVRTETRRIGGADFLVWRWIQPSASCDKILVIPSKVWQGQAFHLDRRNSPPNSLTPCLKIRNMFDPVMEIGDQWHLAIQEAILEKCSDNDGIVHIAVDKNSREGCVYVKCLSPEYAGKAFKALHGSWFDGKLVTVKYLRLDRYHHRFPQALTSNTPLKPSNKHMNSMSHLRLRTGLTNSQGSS
Experiment: LEMD3-PPM1α PLA in HFFs on glass; significant in cytoplasm and nucleus
Description: In vitro PLA: Protein-protein PLA was per-formed with antibody pairs listed in Table 4 as described in (42) with the following modifications: cells were plated on FN-coated glass or hydrogels (Matrigen, Brea, Calif.). All primary antibody in-cubations were performed for 16-24 hours at 4 C and cells were counter-stained with 1:40 phalloidin-488 or phalloidin-546 in 1×PBS for 30 minutes at room tempera-ture and/or further processed for IF imaging using the procedure recommended in Sigma's PLA Resource Center. For all recombinant LEMD3 and C-terminal fragment experiments, HFFs were electroporated as above and allowed to culture for 24 hours on 10 µg/mL fibronectin coated glass or hydrogels before fixation. For LEMD3-phospho-Smad2/3, LEMD3-Smad2/3+TGFβ and for Smad2/3-Smad4 PLA assays: cells were treated 90 minutes before fixation with 50 µg/mL for LEMD3- and CTF-Smad2/3 assays, 100 µg/mL TGFβ for LEMD3-phospho-Smad2/3 experiments and 500 µg/mL TGFβ for Smad2/3-Smad4 experiments. […] Imaging and analysis were performed as described for high-resolution ex vivo PLA signals except that no tissue autofluorescence signal was measured or needed to be subtracted and, when appro-priate, other IF signal (e.g. FLAG) were measured in parallel. […] Instead the PLA signal was quantified as the PLA volume divided by the nuclear intensity for each image.

B1: Protein Phosphatase, Mg2+/Mn2+ Dependent 1α (PPM1α) (enzyme, human, UniProt P35813 2-382, looked up)
chain: GAFLDKPKMEKHNAQGQGNGLRYGLSSMQGWRVEMEDAHTAVIGLPSGLESWSFFAVYDGHAGSQVAKYCCEHLLDHITNNQDFKGSAGAPSVENVKNGIRTGFLEIDEHMRVMSEKKHGADRSGSTAVGVLISPQHTYFINCGDSRGLLCRNRKVHFFTQDHKPSNPLEKERIQNAGGSVMIQRVNGSLAVSRALGDFDYKCVHGKGPTEQLVSPEPEVHDIERSEEDDQFIILACDGIWDVMGNEELCDFVRSRLEVTDDLEKVCNEVVDTCLYKGSRDNMSVILICFPNAPKVSPEAVKKEAELDKYLECRVEEIIKKQGEGVPDLVHVMRTLASENIPSLPPGGELASKRNVIEAVYNRLNPYKNDDTDSTSTDDMW
notes: whole, on cells; Endogenous protein inside fixed HFFs, detected by PLA with antibody 7F12; also called PPM1a
binding result: binds
